Columns and labels:
Test in all cases: initial rate of epoxide hydrolysis, chiral HPLC
Assay type in all cases: biochemical, Agromyces mediolanus
Conditions in all cases: phosphate buffer 0.2 M, pH 8.0, 30 °C (general activity assay), enantiopure substrate
c1ccc(COC[C@@H]2CO2)cc1 = tested on: T1, c1ccc(COC[C@@H]2CO2)cc1
T1 construct: synthetic gene, triple variant, C-terminal His6 (3' end of gene) in pET28a NcoI/XhoI, E. coli BL21(DE3), Ni-NTA purified, about 43 kDa
Excerpt: (§1) initial rate of epoxide hydrolysis, chiral HPLC on vEH-Am

c1ccc(COC[C@H]2CO2)cc1 = tested on: T2, c1ccc(COC[C@H]2CO2)cc1
T2 construct: synthetic gene, triple variant, C-terminal His6 (3' end of gene) in pET28a NcoI/XhoI, E. coli BL21(DE3), Ni-NTA purified, about 43 kDa
Excerpt: as §1

c1ccc([C@@H]2CO2)cc1 = tested on: T3, c1ccc([C@@H]2CO2)cc1
T3 construct: synthetic gene, triple variant, C-terminal His6 (3' end of gene) in pET28a NcoI/XhoI, E. coli BL21(DE3), Ni-NTA purified, about 43 kDa
Excerpt: as §1

c1ccc([C@H]2CO2)cc1 = tested on: T4, c1ccc([C@H]2CO2)cc1
T4 construct: synthetic gene, triple variant, C-terminal His6 (3' end of gene) in pET28a NcoI/XhoI, E. coli BL21(DE3), Ni-NTA purified, about 43 kDa
Excerpt: as §1

In the case of “vEH-Am (Agromyces mediolanus; N240D/S207V/W182F)”, the Km (c1ccc(COC[C@@H]2CO2)cc1) is reported as 36.5 mM, the Km (c1ccc(COC[C@H]2CO2)cc1) is reported as 9.3 mM and the Km (c1ccc([C@@H]2CO2)cc1) is reported as 5.2 mM. For the same substance, the Km (c1ccc([C@H]2CO2)cc1) was 0.9 mM.

From paper PMC6627055, “Enantioselective Hydrolysis of Styrene Oxide and Benzyl Glycidyl Ether by a Variant of Epoxide Hydrolase from Agromyces mediolanus” (Marine Drugs, 2019)
